Measurements taken from US20260209750, “SYSTEM AND METHOD FOR […] RNA APTAMER” (CRISmers Biotechnologies (Shenzhen) Co., Ltd., published 2026).

Key:
[1] = biological target: NSP7-8 complex (SARS-CoV-2, UniProt P0DTD1;P0DTD1 P0DTD1:3860-3942,P0DTD1:3943-4140); assay: ELONA; details: label: biotin
[2] = biological target: T1, SARS-CoV-2 spike RBD (wild type), recombinant (SARS-CoV-2, UniProt P0DTC2 P0DTC2:319-541); assay: ELONA
[3] = biological target: PD-1 extracellular domain, recombinant (UniProt Q15116 Q15116:25-170); assay: ELONA
Sequence of PD-1 extracellular domain, recombinant (Q15116 25-170, one chain of several): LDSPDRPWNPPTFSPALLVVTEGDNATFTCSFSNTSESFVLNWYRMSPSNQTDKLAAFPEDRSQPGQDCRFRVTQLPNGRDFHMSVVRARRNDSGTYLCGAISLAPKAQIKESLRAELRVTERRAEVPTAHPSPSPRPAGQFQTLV

[4] = biological target: T1, SARS-CoV-2 spike RBD (wild type), …; assay: EMSA

For ACUUGGCCAAUUACCGUAGUUUUUGUAGUCUGCAGGGCCAAGUG (ssRNA) [#5-2-15 full], the binding result [1] was “no binding”, the Kd [2] was 22.6 nM and the binding result [3] was “no binding”.

ACUUGGCCACGUCGACUGAAAUCCUCUUCCUGCAGGGCCAAGUG (ssRNA) [#2-1-18 full]: no binding [1]; no binding [3].

ACUUGGCCACGUCGACUGAAAUCCUCUUCCUGCAGGGCCAAGUG (ssRNA, 2'-F on pyrimidines, 2'-OMe on purines) [#2-1-18-2'-F-O]: binds [4].

ACUUGGCCAAUUACCGUAGUUUUUGUAGUCUGCAGGGCCAAGUG (ssRNA, 2'-F on pyrimidines, 2'-OMe on purines) [#5-2-15-2'-F-O]: binds [4].
